Reference: IntAct's records for PubMed 11423549

B1: Zyxin (Homo sapiens), Q15942 (parent)
chain: MAAPRPSPAISVSVSAPAFYAPQKKFGPVVAPKPKVNPFRPGDSEPPPAPGAQRAQMGRVGEIPPPPPEDFPLPPPPLAGDGDDAEGALGGAFPPPPPPIEESFPPAPLEEEIFPSPPPPPEEEGGPEAPIPPPPQPREKVSSIDLEIDSLSSLLDDMTKNDPFKARVSSGYVPPPVATPFSSKSSTKPAAGGTAPLPPWKSPSSSQPLPQVPAPAQSQTQFHVQPQPQPKPQVQLHVQSQTQPVSLANTQPRGPPASSPAPAPKFSPVTPKFTPVASKFSPGAPGGSGSQPNQKLGHPEALSAGTGSPQPPSFTYAQQREKPRVQEKQHPVPPPAQNQNQVRSPGAPGPLTLKEVEELEQLTQQLMQDMEHPQRQNVAVNELCGRCHQPLARAQPAVRALGQLFHIACFTCHQCAQQLQGQQFYSLEGAPYCEGCYTDTLEKCNTCGEPITDRMLRATGKAYHPHCFTCVVCARPLEGTSFIVDQANRPHCVPDYHKQYAPRCSVCSEPIMPEPGRDETVRVVALDKNFHMKCYKCEDCGKPLSIEADDNGCFPLDGHVLCRKCHTARAQT

Variants of: B1
Details: with actn1_human ACTN1, P12814
Chain of actn1_human ACTN1, P12814 (P12814 whole entry): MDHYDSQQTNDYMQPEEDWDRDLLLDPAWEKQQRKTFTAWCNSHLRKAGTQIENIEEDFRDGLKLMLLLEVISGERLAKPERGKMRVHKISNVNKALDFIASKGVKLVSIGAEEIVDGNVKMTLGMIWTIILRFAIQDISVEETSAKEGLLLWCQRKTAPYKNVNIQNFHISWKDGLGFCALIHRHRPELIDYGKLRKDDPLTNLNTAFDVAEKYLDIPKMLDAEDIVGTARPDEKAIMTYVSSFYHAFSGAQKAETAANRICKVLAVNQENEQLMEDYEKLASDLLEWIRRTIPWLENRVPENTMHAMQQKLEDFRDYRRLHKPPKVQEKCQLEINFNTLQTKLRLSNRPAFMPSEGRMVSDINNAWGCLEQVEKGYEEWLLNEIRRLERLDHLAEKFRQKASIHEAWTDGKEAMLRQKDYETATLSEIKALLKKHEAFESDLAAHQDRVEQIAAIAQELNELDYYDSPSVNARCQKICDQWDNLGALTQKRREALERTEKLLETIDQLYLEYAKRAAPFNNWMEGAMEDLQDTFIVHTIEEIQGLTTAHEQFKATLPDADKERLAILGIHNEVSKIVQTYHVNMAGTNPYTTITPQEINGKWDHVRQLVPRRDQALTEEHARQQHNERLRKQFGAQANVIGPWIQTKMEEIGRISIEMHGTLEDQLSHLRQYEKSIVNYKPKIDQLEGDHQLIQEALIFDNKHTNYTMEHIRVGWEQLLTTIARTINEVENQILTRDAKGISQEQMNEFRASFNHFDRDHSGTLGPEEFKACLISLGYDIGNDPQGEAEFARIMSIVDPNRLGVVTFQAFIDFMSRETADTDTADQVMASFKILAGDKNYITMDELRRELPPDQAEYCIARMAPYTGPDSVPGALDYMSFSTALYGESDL

effect of a mutation on the interaction | Variant
decreasing interaction | MAAPRPSPAISVSVSAPAFYAPQKKFGPVVSPKPKVNPFRPGDSEPPPAPGAQRAQMGRVGEIPPPPPEDFPLPPPPLAGDGDDAEGALGGAFPPPPPPIEESFPPAPLEEEIFPSPPPPPEEEGGPEAPIPPPPQPREKVSSIDLEIDSLSSLLDDMTKNDPFKARVSSGYVPPPVATPFSSKSSTKPAAGGTAPLPPWKSPSSSQPLPQVPAPAQSQTQFHVQPQPQPKPQVQLHVQSQTQPVSLANTQPRGPPASSPAPAPKFSPVTPKFTPVASKFSPGAPGGSGSQPNQKLGHPEALSAGTGSPQPPSFTYAQQREKPRVQEKQHPVPPPAQNQNQVRSPGAPGPLTLKEVEELEQLTQQLMQDMEHPQRQNVAVNELCGRCHQPLARAQPAVRALGQLFHIACFTCHQCAQQLQGQQFYSLEGAPYCEGCYTDTLEKCNTCGEPITDRMLRATGKAYHPHCFTCVVCARPLEGTSFIVDQANRPHCVPDYHKQYAPRCSVCSEPIMPEPGRDETVRVVALDKNFHMKCYKCEDCGKPLSIEADDNGCFPLDGHVLCRKCHTARAQT [A31S]
increasing interaction | MAAPRPSPAISVSVSAPAFYAPQKKFGPVVAPKPKVNPSRPGDSEPPPAPGAQRAQMGRVGEIPPPPPEDFPLPPPPLAGDGDDAEGALGGAFPPPPPPIEESFPPAPLEEEIFPSPPPPPEEEGGPEAPIPPPPQPREKVSSIDLEIDSLSSLLDDMTKNDPFKARVSSGYVPPPVATPFSSKSSTKPAAGGTAPLPPWKSPSSSQPLPQVPAPAQSQTQFHVQPQPQPKPQVQLHVQSQTQPVSLANTQPRGPPASSPAPAPKFSPVTPKFTPVASKFSPGAPGGSGSQPNQKLGHPEALSAGTGSPQPPSFTYAQQREKPRVQEKQHPVPPPAQNQNQVRSPGAPGPLTLKEVEELEQLTQQLMQDMEHPQRQNVAVNELCGRCHQPLARAQPAVRALGQLFHIACFTCHQCAQQLQGQQFYSLEGAPYCEGCYTDTLEKCNTCGEPITDRMLRATGKAYHPHCFTCVVCARPLEGTSFIVDQANRPHCVPDYHKQYAPRCSVCSEPIMPEPGRDETVRVVALDKNFHMKCYKCEDCGKPLSIEADDNGCFPLDGHVLCRKCHTARAQT [F39S]
decreasing interaction | MAAPRPSPAISVSVSAPAFYAPQKKFGPSVAPKPKVNPFRPGDSEPPPAPGAQRAQMGRVGEIPPPPPEDFPLPPPPLAGDGDDAEGALGGAFPPPPPPIEESFPPAPLEEEIFPSPPPPPEEEGGPEAPIPPPPQPREKVSSIDLEIDSLSSLLDDMTKNDPFKARVSSGYVPPPVATPFSSKSSTKPAAGGTAPLPPWKSPSSSQPLPQVPAPAQSQTQFHVQPQPQPKPQVQLHVQSQTQPVSLANTQPRGPPASSPAPAPKFSPVTPKFTPVASKFSPGAPGGSGSQPNQKLGHPEALSAGTGSPQPPSFTYAQQREKPRVQEKQHPVPPPAQNQNQVRSPGAPGPLTLKEVEELEQLTQQLMQDMEHPQRQNVAVNELCGRCHQPLARAQPAVRALGQLFHIACFTCHQCAQQLQGQQFYSLEGAPYCEGCYTDTLEKCNTCGEPITDRMLRATGKAYHPHCFTCVVCARPLEGTSFIVDQANRPHCVPDYHKQYAPRCSVCSEPIMPEPGRDETVRVVALDKNFHMKCYKCEDCGKPLSIEADDNGCFPLDGHVLCRKCHTARAQT [V29S]
decreasing interaction | MAAPRPSPAISVSVSAPAFYAPQKKSGPVVAPKPKVNPFRPGDSEPPPAPGAQRAQMGRVGEIPPPPPEDFPLPPPPLAGDGDDAEGALGGAFPPPPPPIEESFPPAPLEEEIFPSPPPPPEEEGGPEAPIPPPPQPREKVSSIDLEIDSLSSLLDDMTKNDPFKARVSSGYVPPPVATPFSSKSSTKPAAGGTAPLPPWKSPSSSQPLPQVPAPAQSQTQFHVQPQPQPKPQVQLHVQSQTQPVSLANTQPRGPPASSPAPAPKFSPVTPKFTPVASKFSPGAPGGSGSQPNQKLGHPEALSAGTGSPQPPSFTYAQQREKPRVQEKQHPVPPPAQNQNQVRSPGAPGPLTLKEVEELEQLTQQLMQDMEHPQRQNVAVNELCGRCHQPLARAQPAVRALGQLFHIACFTCHQCAQQLQGQQFYSLEGAPYCEGCYTDTLEKCNTCGEPITDRMLRATGKAYHPHCFTCVVCARPLEGTSFIVDQANRPHCVPDYHKQYAPRCSVCSEPIMPEPGRDETVRVVALDKNFHMKCYKCEDCGKPLSIEADDNGCFPLDGHVLCRKCHTARAQT [F26S]
